Numbered stars: 1 amine (or outer) side, 2 acyl side, 3 side chain; on linkers, the order of the positions; unused ones are H or OH. Square brackets hold non-standard residues; d marks the D form. Side chains are listed from the residue outwards. * marks the point of attachment. C20 diacid = O=C(O)CCCCCCCCCCCCCCCCCCC(=O)*; C18 diacid = O=C(O)CCCCCCCCCCCCCCCCC(=O)*; γGlu = O=C(O)[C@H](CCC(=O)[*:2])N[*:1]; AEEA = NCCOCCOCC(=O)O; Aib = CC(C)(N)C(=O)O
T1: human amylin-3(a) receptor (human, UniProt P30988 25-474; O60896 24-148)
T1 sequence (looked up) 1: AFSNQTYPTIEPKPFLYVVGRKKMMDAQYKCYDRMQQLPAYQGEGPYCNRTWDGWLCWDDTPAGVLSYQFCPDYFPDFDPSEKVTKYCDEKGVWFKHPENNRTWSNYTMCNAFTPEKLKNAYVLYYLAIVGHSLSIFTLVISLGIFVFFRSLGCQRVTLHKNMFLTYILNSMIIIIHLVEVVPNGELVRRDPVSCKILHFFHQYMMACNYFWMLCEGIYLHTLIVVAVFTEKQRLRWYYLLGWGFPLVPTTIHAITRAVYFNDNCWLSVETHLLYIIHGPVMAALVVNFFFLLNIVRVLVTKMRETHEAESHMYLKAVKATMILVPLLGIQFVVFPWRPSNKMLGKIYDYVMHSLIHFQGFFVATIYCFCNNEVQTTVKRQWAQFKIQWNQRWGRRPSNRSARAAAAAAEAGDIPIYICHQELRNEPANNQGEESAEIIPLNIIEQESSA
T1 sequence (looked up) 2: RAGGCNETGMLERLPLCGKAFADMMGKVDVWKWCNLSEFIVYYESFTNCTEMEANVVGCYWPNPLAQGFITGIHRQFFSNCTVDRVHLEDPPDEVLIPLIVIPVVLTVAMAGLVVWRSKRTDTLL

T2: human GIP receptor (human, UniProt P48546 22-466)
T2 sequence (looked up): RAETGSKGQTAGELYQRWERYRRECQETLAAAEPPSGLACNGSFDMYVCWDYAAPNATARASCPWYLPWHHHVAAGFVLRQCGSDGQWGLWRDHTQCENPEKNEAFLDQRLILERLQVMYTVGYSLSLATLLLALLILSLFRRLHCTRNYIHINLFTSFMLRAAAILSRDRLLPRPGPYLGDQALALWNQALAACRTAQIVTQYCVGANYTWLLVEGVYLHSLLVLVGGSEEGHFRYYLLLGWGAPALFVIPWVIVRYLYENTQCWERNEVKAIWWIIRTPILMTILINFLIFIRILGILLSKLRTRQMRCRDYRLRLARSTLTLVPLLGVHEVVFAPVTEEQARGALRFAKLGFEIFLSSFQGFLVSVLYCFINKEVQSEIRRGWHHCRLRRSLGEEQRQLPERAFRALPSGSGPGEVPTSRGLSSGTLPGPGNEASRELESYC

B1: Compound 91 (peptide)
peptide: H[Aib]HGTFTSDYSILLEEQAAREFIEWLLAGGPSSGAGQAPGQAPGASHLSTAQTQRLSAELHRLK([AEEA-AEEA-γGlu-C18 diacid])TLPRTETGSGSP-NH2
B2: Compound 79 (peptide)
peptide: Y[Aib]EGTFTSDYSILLEEQAAREFIEWLLAGGPSSGEASHLSTAQTQRLSAK([AEEA-AEEA-γGlu-C18 diacid])LHRLATLPRTETGSGSP-NH2
B3: Compound 82 (peptide)
peptide: H[Aib]HGTFTSDYSILLEEQAAREFIEWLLAGGPSSGEASHLSTAQTQRLSAK([AEEA-AEEA-γGlu-C18 diacid])LHRLATLPRTETGSGSP-NH2
B4: Compound 83 (peptide)
peptide: H[Aib]HGTFTSDYSILLEEQAAREFIEWLLAGGPSSGEASHLSTAQTQRLSAELHRLK([AEEA-AEEA-γGlu-C18 diacid])TLPRTETGSGSP-NH2
B5: Compound 80 (peptide)
peptide: Y[Aib]EGTFTSDYSILLEEQAAREFIEWLLAGGPSSGEASHLSTAQTQRLSAELHRLK([AEEA-AEEA-γGlu-C18 diacid])TLPRTETGSGSP-NH2
B6: Compound 90 (peptide)
peptide: H[Aib]HGTFTSDYSILLEEQAAREFIEWLLAGGPSSGEASHLSTAALGRLSAELHRLATLPK([AEEA-AEEA-γGlu-C18 diacid])TETGSGSP-NH2
B7: Compound 84 (peptide)
peptide: H[Aib]HGTFTSDYSILLEEQAAREFIEWLLAGGPSSGEASHLSTAQTQRLSAELHRLATLPK([AEEA-AEEA-γGlu-C18 diacid])TETGSGSP-NH2
B8: Compound 86 (peptide)
peptide: H[Aib]HGTFTSDYSILLEEQAAREFIEWLLAGGPSK([AEEA-AEEA-γGlu-C18 diacid])GAPPPSGGGASELSTAALGRLSAELHRLATLPRTETGSGSP-NH2
B9: Compound 77 (peptide)
peptide: Y[Aib]EGTFTSDYSILLEEQAAREFIEWLLAGGPSSGAGQAPGQAPLASHLSTAQTQRLSAELHK([AEEA-AEEA-γGlu-C20 diacid])LATLPRTETGSGSP-NH2
B10: Compound 89 (peptide)
peptide: H[Aib]HGTFTSDYSILLEEQAAREFIEWLLAGGPSSGEASHLSTAALGRLSAELHRLK([AEEA-AEEA-γGlu-C18 diacid])TLPRTETGSGSP-NH2
B11: Compound 88 (peptide)
peptide: H[Aib]HGTFTSDYSILLEEQAAREFIEWLLAGGPSSGEASHLSTAALGRLSAELHK([AEEA-AEEA-γGlu-C18 diacid])LATLPRTETGSGSP-NH2
B12: Compound 87 (peptide)
peptide: H[Aib]HGTFTSDYSILLEEQAAREFIEWLLAGGPSSGEASHLSTAALGRLSAK([AEEA-AEEA-γGlu-C18 diacid])LHRLATLPRTETGSGSP-NH2
B13: Compound 78 (peptide)
peptide: H[Aib]HGTFTSDYSILLEEQAAREFIEWLLAGGPSSGAGQAPGQAPGASHLSTAQTQRLSAK([AEEA-AEEA-γGlu-C18 diacid])LHRLATLPRTETGSGSP-NH2
B14: Compound 81 (peptide)
peptide: Y[Aib]EGTFTSDYSILLEEQAAREFIEWLLAGGPSSGEASHLSTAQTQRLSAELHRLATLPK([AEEA-AEEA-γGlu-C18 diacid])TETGSGSP-NH2
B15: Compound 85 (peptide)
peptide: H[Aib]HGTFTSDYSILLEEQAAREFIEWLLAGGPSSGEASHLSTAQTQRLSAELHK([AEEA-AEEA-γGlu-C18 diacid])LATLPRTETGSGAP-NH2

Experiments:
Assay in all cases: cell-based or functional assay
human GLP-1 receptor [1] = molecular target: T3, human GLP-1 receptor (human, UniProt P43220 24-463)
[2] = molecular target: T1, human amylin-3(a) receptor
human GIP receptor [3] = molecular target: T2, human GIP receptor
human GLP-1 receptor [4] = molecular target: T3, human GLP-1 receptor; remark: listed apart in the source
[5] = molecular target: T1, human amylin-3(a) receptor; remark: listed apart in the source
human GIP receptor [6] = molecular target: T2, human GIP receptor; remark: listed apart in the source

Binder | hGLP-1R Potency, 1% HSA, EC50 [pM] (human GLP-1 receptor [1]) | hAMYR3 Potency, 1% HSA, EC50 [pM] [2] [pM] | hGIPR Potency, 1% HSA, EC50 [pM] (human GIP receptor [3]) | hGLP-1R Potency, no HSA, EC50 [pM] (human GLP-1 receptor [4]) | hAMYR3 Potency, no HSA, EC50 [pM] [5] [pM] | hGIPR Potency, no HSA, EC50 [pM] (human GIP receptor [6])
B1 | 17.4 | 28.8 | 9.31 | 3.79 | 2.26 | 3.21
B2 | 168 | 53.4 | 24.7 | 38.7 | 3.53 | 4.7
B3 | 24.2 | 38 | 19.1 | 3.45 | 3.26 | 3.7
B4 | 9.89 | 45.7 | 13.6 | 2.3 | 2.9 | 2.92
B5 | 111 | 62.4 | 20.2 | 24.8 | 3.23 | 4.01
B6 | 38.6 | 183 | 32.5 | 4.16 | 5.45 | 5.4
B7 | 25.9 | 175 | 11.6 | 3.31 | 4.41 | 3
B8 | 130 | 58.4 | 122 | 6.69 | 3.31 | 5.11
B9 | 51.4 | 382 | 13.4 | 19.7 | 3.13 | 2.53
B10 | 29.5 | 39.7 | 30.6 | 3.86 | 3.12 | 6.47
B11 | 48.8 | 102 | 40.4 | 4.12 | 3.7 | 5.68
B12 | 39.3 | 36.5 | 38.6 | 8.49 | 4.99 | 7.26
B13 | 17.8 | 17.1 | 10.4 | 4.03 | 1.83 | 3.49
B14 | 51.4 | 188 | 15.8 | 16 | 4.07 | 3.31
B15 | 30.3 | 250 | 14.6 | 3.52 | 4.4 | 2.71

— US20260174875A1 (Novo Nordisk A/S, priority 2023, published 2026)
